Earlier results on one substance are cited in PMC6994236.

Broadly, the Kd is the equilibrium constant for the complex coming apart.

Series [1] deals with PSD-95 PDZ1-3 (Rattus norvegicus) (UniProt P31016). The experiment in a line: surface plasmon resonance. (SPR reads the build-up and loss of mass on a sensor chip optically.)
The target of series [2] is PSD-95 PDZ3 (Rattus norvegicus) (UniProt P31016). The series can be described thus: surface plasmon resonance.
PSD-95 PDZ3 (Rattus norvegicus), sequence (P31016 310-396): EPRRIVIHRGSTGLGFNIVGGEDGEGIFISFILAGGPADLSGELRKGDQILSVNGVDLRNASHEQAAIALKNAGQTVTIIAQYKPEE

PSD-95 PDZ1-3 (Rattus norvegicus), sequence (P31016 61-393): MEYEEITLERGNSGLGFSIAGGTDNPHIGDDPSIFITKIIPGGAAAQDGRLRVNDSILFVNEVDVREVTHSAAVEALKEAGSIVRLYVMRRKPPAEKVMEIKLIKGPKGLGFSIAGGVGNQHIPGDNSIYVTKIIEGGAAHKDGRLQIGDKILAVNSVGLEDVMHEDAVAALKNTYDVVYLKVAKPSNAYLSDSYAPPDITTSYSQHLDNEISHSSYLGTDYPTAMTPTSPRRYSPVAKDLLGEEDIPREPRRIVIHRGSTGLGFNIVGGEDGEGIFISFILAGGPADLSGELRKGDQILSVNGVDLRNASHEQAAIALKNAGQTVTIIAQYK

Regarding “synGAP lacking first 100 residues (from UniProt Q9QUH6)”, the Kd in series [1] was 5 nM; in series [2] it was 650 nM.
